Values quoted from earlier work, collected in US20250034272A1, “COMPOSITIONS AND METHODS FOR TREATING SEVERE ASTHMA” (Equillium, Inc., priority 2018, published 2025).

Tested on: Th1/Th17 type T cells
Conditions: stated as known ability

B1: EQ001: humanized anti-CD6 monoclonal antibody, VH/VK SEQ ID NOS: 1 and 2; itolizumab produced in CHO cells (antibody, V domains shown)
VH: EVQLVESGGGLVKPGGSLKLSCAASGFKFSRYAMSWVRQAPGKRLEWVATISSGGSYIYYPDSVKGRFTISRDNVKNTLYLQMSSLRSEDTAMYYCARRDYDLDYFDSWGQGTLVTVSS
VL: DIQMTQSPSSLSASVGDRVTITCKASRDIRSYLTWYQQKPGKAPKTLIYYATSLADGVPSRFSGSGSGQDYSLTISSLESDDTATYYCLQHGESPFTLGSGTKLEIK
modifications: humanized T1h VH sequence; humanized T1h VL sequence
notes: itolizumab produced in CHO cells
inhibition of activation and migration of Th1/Th17 type T cells: inhibit activation and migration
